Each block holds one substance with its values, some of them ahead of it.
Key:
[1] = target: co-repressor peptide; test: fluorescence polarisation; fluorescence anisotropy assay in vitro, receptor LBD with co-repressor peptide; conditions not shown (Supplementary Methods)
[2] = target: Gal4-NCoR (ID 1 + 2); test: mammalian two-hybrid assay (luciferase reporter, HEK293 cells); conditions: 20 h, parent: 100, read off a plot

fold reduction of affinity (against the wild-type LBD) [1]: 2 fold
Substance: LXRα ligand-binding domain (LBD) p.M346V (domain or fragment)

percent of parent ([2]; LOF sub-panel, highest T0901317 (T09) dose plotted (rightmost point)): 100 % WT
percent of parent ([2]; LOF sub-panel, untreated condition (leftmost point, plotted an order of magnitude below the lowest T09 dose)): 75 % WT
Substance: LXRα-VP16 (wild-type liver X receptor-α fused to VP16) mutant L217P [human] / Gal4-NCoR (ID 1 + 2) [not stated] chain 1 L217P

percent of parent ([2]; GOF sub-panel, highest T0901317 (T09) dose plotted (rightmost point)): 12 % WT
percent of parent ([2]; GOF sub-panel, untreated condition (leftmost point, plotted an order of magnitude below the lowest T09 dose)): 65 % WT
Substance: LXRα-VP16 (wild-type liver X receptor-α fused to VP16) mutant M346V [human] / Gal4-NCoR (ID 1 + 2) [not stated] chain 1 M346V

From article PMC11496107
